According to US5985836A, “Alpha-1 proteinase inhibitor binding peptides” (Bayer Corporation, priority 1998, dated 1999):
Ends that are not written are not given here.

Experiments:
[1] = biological target: T1, apolipoprotein alpha-1 (Apo A-1) (Homo sapiens, UniProt P02647); test: Purification from Effluent II+III, Apo A-1 mass balance; format: binding; details: 1 ml Eff. II+III, 4° C.
T1 construct: Eff; II+III is a process intermediate in the Cohn plasma fractionation process; tissue Bayer Corporation (Clayton, N.C.); host or cells: plasma fraction: Cohn Effluent II+III
Procedure: (§1) Sequences 1-11 and 15 were assayed with Effluent II+III (Eff. II+III). Eff. II+III is a process intermediate in the Cohn plasma fractionation process. The feed stream contains 20% (by volume) ethanol, 20-25 mg/ml hSA and approximately 1 mg/ml AlPI. The stream also contains other proteins including anti-thrombin III (AT3), immunoglobin G (IgG), immunoglobin A (IgA), apolipoprotein alpha-1 (Apo A-1), transferrin (Trf), haptoglobin (Hpt), and alpha-1 acid glycoprotein (AAG) at concentrations ranging from 0.1-1 mg/ml.
(§2) The columns were assayed using the same technique as the hSA+AlPI experiments, allowing for a 10 minute residence time followed by a constant flow rate of 865 μl/min with step elutions of 1M NaCl, 3M NaCl, and 2% acetic acid. All experiments were conducted at 4° C. The mass balances for the injection of 1 ml Eff. […] The AlPI was enriched from 3% of the total protein in the feed to upwards of 50% in the acid eluate.

[2] = system: Immunoglobulin G (IgG); test: Purification from Effluent II+III, IgG mass balance; format: binding, human; details: 1 ml Eff. II+III, 4° C.
Procedure: as §1, §2

[3] = biological target: T2, A1PI (Homo sapiens, UniProt P01009); test: A1PI yield from dialyzed (aqueous) Effluent II+III; format: binding; details: 4° C.
T2 construct: Human plasma is currently the only approved source of therapeutic AlPI
Procedure: Effluent II+III was dialyzed against equilibration buffer at 4° C. to remove the ethanol using a 15,000 molecular weight cut-off membrane. Nephelometry of the Eff. […] A portion of the identified sequences were assayed under the same conditions applied for neat Eff. II+III at 4° C. […] II+III compared to the neat, ethanol-containing feed. The binding strength differed for the aqueous feed as more AlPI eluted in 1M NaCl for the aqueous feed. The AlPI eluted in the 1M NaCl fractions was not as enriched as that eluted in the acid eluates.

[4] = system: Immunoglobulin A (IgA); test: Purification from Effluent II+III, IgA mass balance; format: binding, human; details: 1 ml Eff. II+III, 4° C.
Procedure: as §1, §2

[5] = biological target: T2, A1PI; test: Purification of A1PI from Effluent II+III on peptide column, A1PI mass balance; format: binding; details: A1PI, 1 ml Eff. II+III, 4° C.
Procedure, shortened: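 Run at 4° C: Effluent II+III (1 ml, 20% ethanol) loaded with a 10 min residence. Elution at 865 μl/min, in sequence 1M NaCl, 3M NaCl, 2% acetic acid; A1PI, IgA, IgG and haptoglobin accounted for in each fraction.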

[6] = biological target: T2, A1PI; test: A1PI purification from 5 mg hSA + 1 mg A1PI on peptide column, A1PI mass balance; format: binding; details: A1PI, 5 mg hSA + 1 mg A1PI; for Percent Eluted by Fraction, 1M NaCl / Percent Eluted by Fraction, 2% Ac. Acid / Percent Eluted by Fraction, 3M NaCl / Percent Eluted by Fraction, Flow: relative to total eluted
Procedure, shortened: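 Mass balance by immunonephelometry of fractions from step elutions (1M NaCl, 3M NaCl, 2% acetic acid, neutralised with Tris) at 865 μl/min. Sample was a mixture of 1 mg A1PI and 5 mg hSA held 10 min on peptide-derivatised Toyopearl columns (0.1 mmole/g) at 4 °C or 20 °C.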

[7] = biological target: T2, A1PI; test: A1PI binding on peptide-resin column, injection of 1 mg A1PI in equilibration buffer; details: 1 mg A1PI in equilibration buffer
Procedure, shortened: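 Percent of total eluted A1PI per fraction (flowthrough, NaCl steps, 2% acetic acid) determined by A280 integration or immunonephelometry. Columns of peptide-derivatized A-Totda-Toyopearl resin (0.1 mmole/g) received 1 mg A1PI at 4 °C or 20 °C, flow 865 or 523 μl/min.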

[8] = * as in Tables 4, 5 (below detection limit)
[9] = 1 ml dialyzed Eff. II+III (ethanol removed)
[10] = A1PI, 1 ml dialyzed Eff. II+III
[11] = 20° C., * Below detection limit

T1 sequence (P02647 19-267): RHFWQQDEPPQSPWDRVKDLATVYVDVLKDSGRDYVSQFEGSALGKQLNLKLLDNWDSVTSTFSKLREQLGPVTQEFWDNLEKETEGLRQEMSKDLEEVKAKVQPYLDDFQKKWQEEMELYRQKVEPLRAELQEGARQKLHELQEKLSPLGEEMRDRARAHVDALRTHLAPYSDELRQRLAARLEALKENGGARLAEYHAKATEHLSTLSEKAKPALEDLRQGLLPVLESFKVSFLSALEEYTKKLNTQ
T2 sequence (P01009 25-418): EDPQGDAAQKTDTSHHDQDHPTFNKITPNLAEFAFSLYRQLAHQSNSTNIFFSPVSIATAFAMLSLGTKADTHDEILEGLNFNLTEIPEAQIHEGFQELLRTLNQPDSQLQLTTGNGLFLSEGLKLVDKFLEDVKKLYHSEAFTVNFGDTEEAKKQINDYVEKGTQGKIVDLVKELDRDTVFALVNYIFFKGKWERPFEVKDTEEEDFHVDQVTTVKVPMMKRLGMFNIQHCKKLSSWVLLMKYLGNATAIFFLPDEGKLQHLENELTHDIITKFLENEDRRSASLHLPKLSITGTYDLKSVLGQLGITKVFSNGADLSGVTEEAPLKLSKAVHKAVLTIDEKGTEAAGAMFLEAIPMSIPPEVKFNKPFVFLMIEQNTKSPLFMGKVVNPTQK

ARWYIH
Percent Eluted by Fraction, 1M NaCl [1]: 0%
Percent Eluted by Fraction, 2% Acetic Acid [1]: 100%
Percent Eluted by Fraction, 3M NaCl [1]: 0%
Percent Eluted by Fraction, Flow [1]: 0%
Mass Protein per Eluate Fraction, 2% Acetic Acid [1, 8]: 0.29 mg
Percent Eluted by Fraction, 1M NaCl [2]: 0%
Percent Eluted by Fraction, 2% Acetic Acid [2]: 7%
Percent Eluted by Fraction, 3M NaCl [2]: 0%
Percent Eluted by Fraction, Flow [2]: 93%
Mass Protein per Eluate Fraction, 2% Acetic Acid [2, 8]: 0.02 mg
Mass Protein per Eluate Fraction, Flow [2, 8]: 0.23 mg
Mass A1PI per Eluate Fraction, 1M NaCl [3, 9]: 0.18 mg
Mass A1PI per Eluate Fraction, 2% Acetic Acid [3, 9]: 0.20 mg
Mass A1PI per Eluate Fraction, Flowthrough [3, 9]: 0.24 mg
Percent Eluted by Fraction, 1M NaCl [3, 10]: 30%
Percent Eluted by Fraction, 2% Acetic Acid [3, 10]: 32%
Percent Eluted by Fraction, Flowthrough [3, 10]: 39%
Percent Eluted by Fraction, 1M NaCl [4]: 18%
Percent Eluted by Fraction, 2% Acetic Acid [4]: 56%
Percent Eluted by Fraction, 3M NaCl [4]: 0%
Percent Eluted by Fraction, Flow [4]: 25%
Mass Protein per Eluate Fraction, 1M NaCl [4, 8]: 0.07 mg
Mass Protein per Eluate Fraction, 2% Acetic Acid [4, 8]: 0.21 mg
Mass Protein per Eluate Fraction, Flow [4, 8]: 0.09 mg
Percent Eluted by Fraction, 1M NaCl [5]: 7%
Percent Eluted by Fraction, 2% Acetic Acid [5]: 75%
Percent Eluted by Fraction, 3M NaCl [5]: 0%
Percent Eluted by Fraction, Flow [5]: 18%
Mass Protein per Eluate Fraction, 1M NaCl [5, 8]: 0.08 mg
Mass Protein per Eluate Fraction, 2% Acetic Acid [5, 8]: 0.81 mg
Mass Protein per Eluate Fraction, Flow [5, 8]: 0.20 mg
Mass Protein per Eluate Fraction, 1M NaCl ([6]; 4° C., * Below detection limit): 0.33 mg
Mass Protein per Eluate Fraction, 2% Ac. Acid ([6]; 4° C., * Below detection limit): 0.41 mg
Mass Protein per Eluate Fraction, 3M NaCl ([6]; 4° C., * Below detection limit): 0.04 mg
Percent Eluted by Fraction, 1M NaCl ([6]; 4° C.): 43%
Percent Eluted by Fraction, 2% Ac. Acid ([6]; 4° C.): 53%
Percent Eluted by Fraction, 3M NaCl ([6]; 4° C.): 5%
Percent Eluted by Fraction, Flow ([6]; 4° C.): 0%
Mass Protein per Eluate Fraction, 1M NaCl [6, 11]: 0.16 mg
Mass Protein per Eluate Fraction, 2% Ac. Acid [6, 11]: 0.15 mg
Mass Protein per Eluate Fraction, Flow [6, 11]: 0.67 mg
Percent Eluted by Fraction, 1M NaCl ([6]; 20° C.): 16%
Percent Eluted by Fraction, 2% Ac. Acid ([6]; 20° C.): 15%
Percent Eluted by Fraction, 3M NaCl ([6]; 20° C.): 0%
Percent Eluted by Fraction, Flow ([6]; 20° C.): 69%
Percent A1PI Eluted by Fraction Based on Absorbance at 280 nm, 1M NaCl ([7]; 4° C.): 55%
Percent A1PI Eluted by Fraction Based on Absorbance at 280 nm, 2% Acetic Acid ([7]; 4° C.): 45%
Percent A1PI Eluted by Fraction Based on Absorbance at 280 nm, Flowthrough ([7]; 4° C.): 0%
Percent A1PI Eluted by Fraction, 1M NaCl ([7]; 20° C.): 84%
Percent A1PI Eluted by Fraction, 2% Acetic Acid ([7]; 20° C.): 16%
Percent A1PI Eluted by Fraction, Flowthrough ([7]; 20° C.): 0%
